Measurements as given in paper PMC9561270, “Phosphorylation of the auxin signaling transcriptional repressor IAA15 by MPKs is required for the suppression of root development under drought stress in Arabidopsis” (Nucleic Acids Research, 2022).

What was measured:
[1] = target: T1, His-MPK6 (Arabidopsis thaliana, UniProt Q39026 1-395); experiment: pull-down; 2 ug GST or GST-IAA15 on glutathione-Sepharose 4B beads; 1 ug His-MPK added, overnight at 4 C; 50 mM Tris-HCl pH 7.5, 200 mM NaCl, 1% Triton X-100, 0.1 mM EDTA, 0.5 mM DTT; detected with anti-His antibodies; details: both partners purified
T1 construct: also called His-fused MPK6; source: E. coli M15, purified (Ni-NTA agarose); not shown: His, N-terminal, kept
T1 sequence (Q39026 whole entry, the tested form may be a part): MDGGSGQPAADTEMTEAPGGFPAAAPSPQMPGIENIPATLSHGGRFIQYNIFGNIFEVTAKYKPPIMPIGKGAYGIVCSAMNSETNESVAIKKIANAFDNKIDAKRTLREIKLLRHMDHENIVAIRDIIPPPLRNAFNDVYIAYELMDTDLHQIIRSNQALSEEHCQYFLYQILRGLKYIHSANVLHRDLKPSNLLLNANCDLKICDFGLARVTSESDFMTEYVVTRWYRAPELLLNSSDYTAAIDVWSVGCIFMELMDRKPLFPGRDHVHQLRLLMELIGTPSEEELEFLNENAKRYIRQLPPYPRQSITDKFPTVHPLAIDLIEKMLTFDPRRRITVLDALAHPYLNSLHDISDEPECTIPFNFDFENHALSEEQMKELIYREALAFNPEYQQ

[2] = target: T2, His-MPK3 (Arabidopsis thaliana, UniProt Q39023 1-370); experiment: as above; details: both partners purified
T2 construct: also called His-fused MPK3; source: E. coli M15, purified (Ni-NTA agarose); not shown: His, N-terminal, kept
T2 sequence (looked up): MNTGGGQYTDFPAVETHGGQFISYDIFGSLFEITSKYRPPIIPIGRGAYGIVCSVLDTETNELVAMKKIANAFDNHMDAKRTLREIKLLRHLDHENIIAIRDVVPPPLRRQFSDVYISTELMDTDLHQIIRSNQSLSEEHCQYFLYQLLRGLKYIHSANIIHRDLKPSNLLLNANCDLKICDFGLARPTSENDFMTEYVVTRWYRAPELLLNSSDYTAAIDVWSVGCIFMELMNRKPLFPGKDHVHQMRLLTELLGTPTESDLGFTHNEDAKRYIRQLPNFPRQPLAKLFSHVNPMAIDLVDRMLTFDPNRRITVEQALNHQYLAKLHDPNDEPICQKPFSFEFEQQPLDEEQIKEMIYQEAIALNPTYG

B1: GST-IAA15 (natural protein, Arabidopsis thaliana, UniProt Q9C966 1-179, looked up)
chain: MSPEEYVRVWPDSGDLGGTELTLALPGTPTNASEGPKKFGNKRRFLETVDLKLGEAHENNYISSMVTNDQLVGWPPVATARKTVRRKYVKVALDGAAYLRKVDLGMYDCYGQLFTALENMFQGIITICRVTELERKGEFVATYEDKDGDLMLVGDVPWMMFVESCKRMRLMKTGDAIGL
notes: Auxin-responsive protein IAA15, Arabidopsis thaliana, At1g80390, full length, cloned into pGEX-4T-1; also called GST-fused IAA15; GST-IAA15^WT; source: E. coli BL21 (DE3), purified (glutathione Sepharose-4B); not shown: GST, N-terminal, kept
binding result [1]: binds | binding result [2]: binds
